± gives the standard deviation of the averaged measurements.
Experiments:
[1] = test system: MCF7; assay: percentage of EdU-negative (G0-arrested) nuclei per well, 72 h; higher = more G0 arrest; conditions: reference: sequence is the full UniProt precursor, the tested protein was the secreted form or ectodomain
[2] = test system: hTERT-HMEC; assay: as above; conditions: reference: sequence is the full UniProt precursor, the tested protein was the secreted form or ectodomain
[3] = protein concentration 0.02859 µM
[4] = protein concentration 0.2859 µM
[5] = protein concentration 0.00742857 µM
[6] = protein concentration 0.0225 µM
[7] = protein concentration 0.0742857 µM
[8] = protein concentration 0.0125 µM
[9] = protein concentration 0.0199575 µM
[10] = protein concentration 0.03125 µM
[11] = protein concentration 0.199575 µM
[12] = protein concentration 0.3125 µM
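Also: secreted proteins added to cultured cells, EdU pulse at the end, nuclei found by Hoechst imaging, EdU status from nuclear versus surrounding ring intensity ratio, PBS as neutral control.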

MKSVLLLTTLLVPAHLVAAWSNNYAVDCPQHCDSSECKSSPRCKRTVLDDCGCCRVCAAGRGETCYRTVSGMDGMKCGPGLRCQPSNGEDPFGEEFGICKDCPYGTFGMDCRETCNCQSGICDRGTGKCLKFPFFQYSVTKSSNRFVSLTEHDMASGDGNIVREEVVKENAAGSPVMRKWLNPR [Q9NQ30]
percentage of EdU-negative [1, 3]: 24.2 ± 1%
percentage of EdU-negative [1, 4]: 25.25 ± 0.057%
percentage of EdU-negative [2, 3]: 4.84 ± 1.4%
percentage of EdU-negative [2, 4]: 5.91 ± 0.64%

MRSLGALLLLLSACLAVSAGPVPTPPDNIQVQENFNISRIYGKWYNLAIGSTCPWLKKIMDRMTVSTLVLGEGATEAEISMTSTRWRKGVCEETSGAYEKTDTDGKFLYHKSKWNITMESYVVHTNYDEYAIFLTKKFSRHHGPTITAKLYGRAPQLRETLLQDFRVVAQGVGIPEDSIFTMADRGECVPGEQEPEPILIPRVRRAVLPQEEEGSGGGQLVTEVTKKEDSCQLGYSAGPCMGMTSRYFYNGTSMACETFQYGGCMGNGNNFVTEKECLQTCRTVAACNLPIVRGPCRAFIQLWAFDAVKGKCVLFPYGGCQGNGNKFYSEKECREYCGVPGDGDEELLRFSN
percentage of EdU-negative [1, 5]: 27.22 ± 0.12%
percentage of EdU-negative [1, 6]: 23.9 ± 0.98%
percentage of EdU-negative [1, 7]: 26 ± 2.5%
percentage of EdU-negative ([1]; protein concentration 0.225 µM): 25.2 ± 1.6%
percentage of EdU-negative [2, 5]: 4.92 ± 0.19%
percentage of EdU-negative [2, 6]: 5.59 ± 1.2%
percentage of EdU-negative [2, 7]: 7.02 ± 1.1%
percentage of EdU-negative ([2]; protein concentration 0.225 µM): 5.52 ± 0.57%

MDTRNKAQLLVLLTLLSVLFSQTSAWPLYRAPSALRLGDRIPFEGANEPDQVSLKEDIDMLQNALAENDTPYYDVSRNARHADGVFTSDFSKLLGQLSAKKYLESLMGKRVSSNISEDPVPVKRHSDAVFTDNYTRLRKQMAVKKYLNSILNGKRSSEGESPDFPEELEK
percentage of EdU-negative [1, 8]: 27.7 ± 3.4%
percentage of EdU-negative ([1]; protein concentration 0.125 µM): 22.42 ± 0.17%
percentage of EdU-negative [2, 8]: 5.76 ± 0.37%
percentage of EdU-negative ([2]; protein concentration 0.125 µM): 5.43 ± 0.065%

MGTSLLCWMALCLLGADHADTGVSQNPRHKITKRGQNVTFRCDPISEHNRLYWYRQTLGQGPEFLTYFQNEAQLEKSRLLSDRFSAERPKGSFSTLEIQRTEQGDSAMYLCASSL
percentage of EdU-negative [1, 6]: 27 ± 1.4%
percentage of EdU-negative ([1]; protein concentration 0.225 µM): 26.8 ± 1.4%
percentage of EdU-negative [2, 6]: 5.02 ± 0.49%
percentage of EdU-negative ([2]; protein concentration 0.225 µM): 6.26 ± 1.2%

MGTTARAALVLTYLAVASAASEGGFTATGQRQLRPEHFQEVGYAAPPSPPLSRSLPMDHPDSSQHGPPFEGQSQVQPPPSQEATPLQQEKLLPAQLPAEKEVGPPLPQEAVPLQKELPSLQHPNEQKEGTPAPFGDQSHPEPESWNAAQHCQQDRSQGGWGHRLDGFPPGRPSPDNLNQICLPNRQHVVYGPWNLPQSSYSHLTRQGETLNFLEIGYSRCCHCRSHTNRLECAKLVWEEAMSRFCEAEFSVKTRPHWCCTRQGEARFSCFQEEAPQPHYQLRACPSHQPDISSGLELPFPPGVPTLDNIKNICHLRRFRSVPRNLPATDPLQRELLALIQLEREFQRCCRQGNNHTCTWKAWEDTLDKYCDREYAVKTHHHLCCRHPPSPTRDECFARRAPYPNYDRDILTIDIGRVTPNLMGHLCGNQRVLTKHKHIPGLIHNMTARCCDLPFPEQACCAEEEKLTFINDLCGPRRNIWRDPALCCYLSPGDEQVNCFNINYLRNVALVSGDTENAKGQGEQGSTGGTNISSTSEPKEE
percentage of EdU-negative [1, 9]: 23.4 ± 2%
percentage of EdU-negative [1, 10]: 25.6 ± 1.1%
percentage of EdU-negative [1, 11]: 25.7 ± 1.2%
percentage of EdU-negative [1, 12]: 26 ± 1.7%
percentage of EdU-negative [2, 9]: 5.01 ± 0.46%
percentage of EdU-negative [2, 10]: 4.52 ± 0.66%
percentage of EdU-negative [2, 11]: 5.74 ± 0.78%
percentage of EdU-negative [2, 12]: 5.29 ± 0.63%

MPRRGYSKPGSWGSFWAMLTLVGLVTHAAQRADVGGEAAGTSINHSQAVLQRLQELLRQGNASDVVLRVQAAGTDEVRVFHAHRLLLGLHSELFLELLSNQSEAVLQEPQDCAAVFDKFIRYLYCGELTVLLTQAIPLHRLATKYGVSSLQRGVADYMRAHLAGGAGPAVGWYHYAVGTGDEALRESCLQFLAWNLSAVAASTEWGAVSPELLWQLLQRSDLVLQDELELFHALEAWLGRARPPPAVAERALRAIRYPMIPPAQLFQLQARSAALARHGPAVADLLLQAYQFHAASPLHYAKFFDVNGSAFLPRNYLAPAWGAPWVINNPARDDRSTSFQTQLGPSGHDAGRRVTWNVLFSPRWLPVSLRPVYADAAGTALPAARPEDGRPRLVVTPASSGGDAAGVSFQKTVLVGARQQGRLLVRHAYSFHQSSEEAGDFLAHADLQRRNSEYLVENALHLHLIVKPVYHTLIRTPK [A6NE02]
percentage of EdU-negative ([1]; protein concentration 0.006 µM): 26.7 ± 0.63%
percentage of EdU-negative ([1]; protein concentration 0.06 µM): 26.1 ± 1.3%
percentage of EdU-negative ([2]; protein concentration 0.006 µM): 5.11 ± 0.82%
percentage of EdU-negative ([2]; protein concentration 0.06 µM): 10 ± 0.96%

From the supplement of paper PMC11316812
